Columns and labels:
[1] = test system: T1, Nuclease M P481R P481R; assay: cell_activity; conditions: PAM TTAAA; HEK293T
T1 sequence: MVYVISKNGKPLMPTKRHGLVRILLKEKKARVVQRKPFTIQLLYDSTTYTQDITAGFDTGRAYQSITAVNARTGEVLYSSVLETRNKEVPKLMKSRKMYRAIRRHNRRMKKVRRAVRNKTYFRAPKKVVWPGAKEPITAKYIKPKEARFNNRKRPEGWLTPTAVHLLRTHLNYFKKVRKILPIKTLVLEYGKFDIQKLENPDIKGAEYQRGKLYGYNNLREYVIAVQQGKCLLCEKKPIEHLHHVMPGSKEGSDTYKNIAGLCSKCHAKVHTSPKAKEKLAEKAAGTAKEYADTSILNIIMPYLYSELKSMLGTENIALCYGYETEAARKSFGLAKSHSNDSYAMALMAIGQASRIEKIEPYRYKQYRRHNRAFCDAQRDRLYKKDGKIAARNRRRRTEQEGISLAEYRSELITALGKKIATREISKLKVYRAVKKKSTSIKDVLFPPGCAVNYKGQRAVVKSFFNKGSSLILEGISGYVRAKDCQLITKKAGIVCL

[2] = target: T2, Nuclease K; assay: cell_activity; PAM NGG (GGG); HEK293T; conditions: tags: N-terminal SV40 NLS, C-terminal nucleoplasmin NLS
T2 chain: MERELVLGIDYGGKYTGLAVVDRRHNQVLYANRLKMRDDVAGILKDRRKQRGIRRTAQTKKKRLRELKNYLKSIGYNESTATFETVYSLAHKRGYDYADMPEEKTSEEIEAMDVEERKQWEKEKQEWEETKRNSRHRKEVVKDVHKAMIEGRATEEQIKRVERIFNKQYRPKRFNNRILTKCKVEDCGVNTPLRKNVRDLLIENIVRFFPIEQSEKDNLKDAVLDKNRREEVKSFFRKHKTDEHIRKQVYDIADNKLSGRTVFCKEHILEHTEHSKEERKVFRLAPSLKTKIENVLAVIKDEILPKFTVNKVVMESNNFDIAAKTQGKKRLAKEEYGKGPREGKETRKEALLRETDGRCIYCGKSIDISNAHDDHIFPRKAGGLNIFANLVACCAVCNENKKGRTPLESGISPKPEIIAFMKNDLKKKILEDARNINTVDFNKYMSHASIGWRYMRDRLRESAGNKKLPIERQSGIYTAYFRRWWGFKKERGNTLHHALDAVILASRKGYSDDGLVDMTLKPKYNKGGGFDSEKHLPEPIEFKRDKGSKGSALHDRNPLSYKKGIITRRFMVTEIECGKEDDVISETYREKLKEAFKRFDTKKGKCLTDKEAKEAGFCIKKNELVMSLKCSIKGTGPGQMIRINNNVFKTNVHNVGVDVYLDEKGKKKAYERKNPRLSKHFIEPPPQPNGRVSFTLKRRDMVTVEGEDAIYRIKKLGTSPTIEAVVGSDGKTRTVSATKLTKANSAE

[3] = target: T3, Nuclease K D582R (D582R); assay: cell_activity; PAM NGG; HEK293T; conditions: tags: N- and C-terminal NLS
T3 chain: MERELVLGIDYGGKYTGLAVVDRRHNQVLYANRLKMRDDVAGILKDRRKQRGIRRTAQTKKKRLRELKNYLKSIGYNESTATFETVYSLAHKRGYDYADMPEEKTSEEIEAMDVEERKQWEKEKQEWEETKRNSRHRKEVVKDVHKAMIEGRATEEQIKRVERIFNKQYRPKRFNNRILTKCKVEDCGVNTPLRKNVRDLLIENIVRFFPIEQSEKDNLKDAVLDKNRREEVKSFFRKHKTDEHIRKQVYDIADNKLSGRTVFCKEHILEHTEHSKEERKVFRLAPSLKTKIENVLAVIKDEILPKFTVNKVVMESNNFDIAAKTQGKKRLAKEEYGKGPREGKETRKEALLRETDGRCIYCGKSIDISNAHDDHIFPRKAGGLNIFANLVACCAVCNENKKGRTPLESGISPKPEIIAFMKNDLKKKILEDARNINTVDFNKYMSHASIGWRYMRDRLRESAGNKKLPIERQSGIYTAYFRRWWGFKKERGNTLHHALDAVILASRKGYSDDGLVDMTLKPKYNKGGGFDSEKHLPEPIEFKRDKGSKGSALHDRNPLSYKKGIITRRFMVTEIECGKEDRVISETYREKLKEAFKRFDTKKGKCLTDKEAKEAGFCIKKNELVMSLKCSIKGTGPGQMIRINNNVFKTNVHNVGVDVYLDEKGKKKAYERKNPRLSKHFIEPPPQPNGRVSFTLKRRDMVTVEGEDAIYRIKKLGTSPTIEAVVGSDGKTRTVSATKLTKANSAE

[4] = target: T4, Nuclease K D46R (D46R); assay: cell_activity; PAM NGG; HEK293T; conditions: tags: N- and C-terminal NLS
T4 chain: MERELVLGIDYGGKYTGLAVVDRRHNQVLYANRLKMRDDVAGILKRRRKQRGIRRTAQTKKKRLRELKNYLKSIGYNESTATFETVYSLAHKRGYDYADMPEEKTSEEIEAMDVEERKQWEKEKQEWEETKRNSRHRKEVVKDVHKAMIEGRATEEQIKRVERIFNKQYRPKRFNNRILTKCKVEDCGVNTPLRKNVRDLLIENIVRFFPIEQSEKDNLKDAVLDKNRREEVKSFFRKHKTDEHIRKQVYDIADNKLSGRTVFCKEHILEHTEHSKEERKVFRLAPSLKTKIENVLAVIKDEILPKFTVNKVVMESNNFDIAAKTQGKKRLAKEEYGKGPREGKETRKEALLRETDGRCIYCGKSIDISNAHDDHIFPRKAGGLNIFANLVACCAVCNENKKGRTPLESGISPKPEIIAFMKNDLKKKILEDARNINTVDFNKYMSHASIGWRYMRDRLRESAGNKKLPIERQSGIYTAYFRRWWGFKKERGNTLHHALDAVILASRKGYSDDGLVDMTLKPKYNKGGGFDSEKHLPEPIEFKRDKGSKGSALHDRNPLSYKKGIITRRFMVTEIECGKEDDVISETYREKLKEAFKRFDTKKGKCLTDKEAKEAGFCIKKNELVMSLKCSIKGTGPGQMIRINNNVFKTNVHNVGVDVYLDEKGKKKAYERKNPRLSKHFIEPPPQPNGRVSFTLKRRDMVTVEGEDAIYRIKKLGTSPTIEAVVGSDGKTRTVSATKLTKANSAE

[5] = target: T2, Nuclease K; assay: cell_activity; PAM NGG (AGG); HEK293T; row labelled Reference SEQ ID NO: 1, text says Nuclease K; conditions: tags: N-terminal SV40 NLS, C-terminal nucleoplasmin NLS

“GAGCCUGGUCCAUGGAGAGUGUCAACUACCCCCGUCUAAAGACGGAGGCAUGAGGUUUCGUAACCAAGUGUUGUACCUGCGGGUACAGUAGUUGAACAGGCGGCGAUGCGGCUGGGCACUCCAGGAUGCCACUCCCAGUCCCGGACACUGCCGACGAGCCGCAUCAAGCCGGGGGAGACCAACCGGCUAACGAUAGCCGAGCAAUUACCUAAAAAGAGGUGCAAAGGAAAUGGUAU / GAGCCTGGTCCATGGAGAGT / ACTCTCCATGGACCAGGCTC [Nuclease M VEGFA-T5 guide ; Nuclease M VEGFA-T5 target]” showed a binding signal (fold vs Nuclease M) [1] of 1.6.

B1: Nuclease K EMX1-T7 guide ; EMX1-T7 target (ssRNA ; dsDNA)
RNA: CUUUAGCAAGGGACUAUUCAGUUACAGUUAAGGCUCUGAAAAGAGCCUUAAUUGUAAAACGCCUAUACAGUGAAGGGAUAUACGCUUGGGUUUGUCCAGCCUGAGCCUCUAUGCCAGAAAUGGCGCCUUCAUCGUGGGUUAGGACAUUUAAAUUUAAAAACUAUUCAGCACUGUUUGCUCUUGUCAGCUUGGUGGCAGA
DNA 1: CTTTAGCAAGGGACTATTCA
DNA 2: TGAATAGTCCCTTGCTAAAG
Work on B1 yielded an activity [2] of 0.011 indel ratio, a binding signal [3] of 31.8 fold vs Nuclease K and a binding signal [4] of 9.86 fold vs Nuclease K.

B2: Nuclease K AAVS1-T3 guide ; AAVS1-T3 target (ssRNA ; dsDNA)
RNA: UUGUGAGAAUGGUGCGUCCUGUUACAGUUAAGGCUCUGAAAAGAGCCUUAAUUGUAAAACGCCUAUACAGUGAAGGGAUAUACGCUUGGGUUUGUCCAGCCUGAGCCUCUAUGCCAGAAAUGGCGCCUUCAUCGUGGGUUAGGACAUUUAAAUUUAAAAACUAUUCAGCACUGUUUGCUCUUGUCAGCUUGGUGGCAGA
DNA 1: TTGTGAGAATGGTGCGTCCT
DNA 2: AGGACGCACCATTCTCACAA
With B2 the binding signal [3] was 3.68 fold vs Nuclease K, the binding signal [4] was 6.71 fold vs Nuclease K and the activity [5] was 0.037 indel ratio.
